This passage reports dH, Kd and stoichiometry N results from article PMC10820826, “Interrogation and validation of the interactome of neuronal Munc18-interacting Mint proteins with AlphaFold2” (The Journal of Biological Chemistry, 2023).

Assay [1] addresses Munc18-1 + Mint1 (rat | human) (UniProt P61765). The assay is described as follows: ITC. On the technique in general: ITC needs no label: the signal is the heat of the interaction.
In a further assay the target is Munc18-1-His (rat) (UniProt P61765).

With “Rat Sx1a (Sx1(1-261)-His) (from UniProt P32851 1-261) (domain or fragment)”, the dH in assay [1] was -29.7 kcal/mol.

Broadly, the Kd is a measure of binding affinity in units of concentration. A lower Kd goes with tighter binding. One may read the stoichiometry N as the number of molecules, sites or subunits per partner or assembly. Regarding Mint1_14 peptide (261-282 A275A/E276A), in the assay with Munc18-1-His (rat), the Kd came out at 216 µM, the dH was -57.6 kcal/mol and the stoichiometry N came to 1.
